For two substances, stoichiometry N results are on record in paper PMC6555636.

The stoichiometry N is a count of units in the complex or per binding partner.

Test [1] concerns the target EXP2 (P. falciparum (endogenous in strain NF54attB)). Nature of the test: cryo-EM structure.
For test [2], the target named is PTEX150 (P. falciparum (endogenous in strain NF54attB)). The test is described as follows: cryo-EM structure.

The substance EXP2 (natural protein) had a stoichiometry N in test [1] of 7. PTEX150 (natural protein): in test [2], the stoichiometry N was determined as 7.
